Substitutions are numbered along the chain they refer to. “And” between values parts separate entries of the source, which are not always exact repeats. Identical values can stand only once.
B1: 7-14 (VHH)
VHH: EVQLVESGGGLVQPGGSLRLSCAASGSTFSINAMGWFRQAPGKEREFVAGISRGGTTNYADSVKGRFTISADNSKNTAYLQMNSLKPEDTAVYYCAADGVPEYSDYASGPVWGQGTLVTVSS
B2: 5A-3 (VHH)
VHH: EVQLVESGGGLVQPGGSLRLSCAASGSIFSIDVMGWFRQAPGKEREFVAGISWSGDSTLYADSVKGRFTISADNSKNTAYLQMNSLKPEDTAVYYCAAFDGYTGSDWGQGTLVTVSS
B3: Variant 6A-3 (VHH)
VHH: EVQLVESGGGLVQPGGSLRLSCAASGFTFSPSWMGWFRQAPGKEREFVATINEYGGRNYADSVKGRFTISADNSKNTAYLQMNSLKPEDTAVYYCARVDRDFDYWGQGTLVTVSS
B4: 7-26 (VHH)
VHH: EVQLVESGGGLVQPGGSLRLSCAASGSTFSINAMGWFRQAPGKEREFVAGITSSGGYTNYADSVKGRFTISADNSKNTAYLQMNSLKPEDTAVYYCAADGVPEYSDYASGPVWGQGTLVTVSS
B5: 7-37 (VHH)
VHH: B4 VHH with F29L, S53R, G56S, Y57V
B6: 3-31 (VHH)
VHH: B4 VHH
B7: Variant 3-31 (VHH)
VHH: B4 VHH

Tests used:
[1] = target: Antibody 178-08_His 501.V2 (27079) (SARS-CoV-2, UniProt P0DTC2 14-685); experiment: FACS
[2] = target: Antibody 178-09_His B.1.1.7 (27080) (SARS-CoV-2, UniProt P0DTC2 14-685); experiment: FACS
[3] = target: 178-6; experiment: competition
[4] = target: 178-6; experiment: binding competition
[5] = target: SARS-CoV-2 S Trimer B.1.1.529 Omicron; experiment: SPR
[6] = target: SARS-CoV-2 S1 Subunit Monomer B.1.1.529 Omicron; experiment: SPR
[7] = target: Antibody 178-10_His CA_W152C_L452R_D614G (27081) (SARS-CoV-2, UniProt P0DTC2 14-685); experiment: FACS
[8] = target: SARS-CoV-2 S1 Subunit Monomer B.1.617.2 Delta; experiment: SPR

Row | Binder | IC50 [1] [nM] | IC50 [2] [nM] | IC50 [3] [nM] | IC50 [4] [nM] | Kd [5] [nM] | Kd [6] [nM] | IC50 [7] | Kd [8] [nM]
1 | B1 | 4.42 | 2.52 | 0.682 | – | – | – | – | –
2 | B2 | 0.587 | 0.891 | – | 0.904 | – | – | – | –
3 | B3 | – | – | – | – | < 0.04 | 3.5 | – | –
4 | B4 | 0.979 | 1.42 | 0.138 | – | – | – | 0.56 nM and 0.634 nM | –
5 | B5 | 2.1 | 2.82 | 7.51 | – | – | – | – | –
6 | B6 | 325 | – | 1.25 | – | – | – | 0.629 nM | –
7 | B7 | – | – | – | – | 2.1 | – | – | 1.1
